Reference: publication PMC4046962

Target: SiaM (Streptomyces sp. A7248)
Test: small-angle X-ray scattering (SAXS); SiaM in 10 mM Na2HPO4, 1.8 mM KH2PO4, 400 mM Na2SO4, pH 8.3, 4°C; curves of monomer, two dimers and tetramer fitted with CRYSOL; mixture analysed with OLIGOMER

stoichiometry N: 4
Substance: SiaM (enzyme)
